Measured values reported in the supplement of paper PMC10567573.
± gives the standard deviation.

Assay: protein stability index of a GFP-peptide fusion (GPS, HEK-293T) (PSI 1-6); higher = more stable
Settings: c terminus: a fixed tail appended
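Also: 24-mer peptide tiles fused after GFP, lentivirally expressed, FACS-sorted into six equal bins by GFP/DsRed ratio, decoded by Illumina sequencing, PSI is the read-weighted mean bin number.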

Sequence | protein stability index (treatment: DMSO) | protein stability index (treatment: MLN4924 1 uM, 8 h)
NHDIRTANDGDYWRLLNPGEYVVT [CPXM2] | 2.96 ± 0.21 | 3.25 ± 0.31
NHEALRQAKQEMNESRRQIQSLTC [PRPH] | 4.47 ± 0.18 | 4.38 ± 0.15
NHEIMPGGSVNITCVAVGSPMPYV [PTPRD] | 2.15 ± 0.8 | 2.28 ± 0.16
NHEQEVNTLRCQLGDRLNVEVDAA [KRT33B] | 4.94 ± 0.11 | 5.16 ± 0.22
NHLPPQTKRSSRNPVFQDSWDTES [FAM104A] | 4.48 ± 0.29 | 4.59 ± 0.46
NIMTQNVERILARGENLEHLRNKT [VAMP8] | 3.46 ± 0.29 | 3.93 ± 0.068
NISELKRTFLETSTDTAVTNEWEK [EPB41L3] | 4.82 ± 0.25 | 4.686 ± 0.034
NLENPMRRIHSLPQKLLGCSPALK [CDC25A] | 2.64 ± 0.23 | 3.11 ± 0.32
NLTSPASITFTTGLEAPRDLEAKE [TNXB] | 5.21 ± 0.51 | 5.51 ± 0.36
NLVAGCLQLNARSFMMGQGGEAAH [NEUROD6] | 2.34 ± 0.22 | 2.02 ± 0.11
NNEIPDCYTFSVLITFDNKAHSGR [MCOLN1] | 2.34 ± 0.31 | 2.42 ± 0.53
NNKYSYTSNSDDNMLKNIELFDKL [KCTD10] | 3.9 ± 0.068 | 3.9 ± 0.26
NNQYSEGVQREAQRIALRLGNGND [KMT2E] | 4.51 ± 0.24 | 4.63 ± 0.18
NNSIKDLTDGHFENILADNSVNDQ [SERPINB5] | 5.32 ± 0.12 | 5.26 ± 0.25
NQIMPKAGLLIIVLAIIAREGDCA [MAGEA3] | 3.02 ± 0.55 | 3.02 ± 0.76
NQLQTKVAVLEQEIKDKDQLVLRT [SASS6] | 4.65 ± 0.21 | 4.74 ± 0.27
NSDDSYTCECLEGFRLAEDGKRCR [MATN2] | 3.54 ± 0.34 | 4.12 ± 0.67
NSIKNEKLEWAIDEDELRKSLSEL [PSD2] | 4.81 ± 0.15 | 4.72 ± 0.079
NTELEVKIRDWYQRQAPGPARDYS [KRT17] | 3.4 ± 0.35 | 3.48 ± 0.41
NVLGAQLDVEAAHSEILKYFQSVT [STX5] | 2.76 ± 0.25 | 2.88 ± 0.33
NVNETDDWGRTALHYAAASDMDRN [ANKRD44] | 4.69 ± 0.15 | 4.77 ± 0.33
NVYRKRRKYFADLAMNYKHGDPIP [TPH1] | 2.75 ± 0.13 | 2.9 ± 0.26

Sequence | protein stability index (treatment: DMSO) | protein stability index (treatment: MLN4924 1 uM, 8 h)
NYCPQQTKITSAFKYINTVISCTI [EDNRA] | 3.3 ± 0.65 | 2.77 ± 0.18
NYDKLSRSIRQYYKKGIIRKPDIS [SPDEF] | 2.55 ± 0.21 | 2.74 ± 0.34
PADCKRKEEAGAPGGGAGMAAGFP [CEBPB] | 5.12 ± 0.35 | 5.29 ± 0.098
PAEAEGAAQELENQMKERQGLFFD [TMEM120A] | 5.33 ± 0.1 | 5.26 ± 0.34
PALHPAHAPQISYTGPSSSGRFAG [NCK2] | 4.02 ± 0.15 | 4.15 ± 0.12
PAPCADGPAGGLADLSSGSSGEDD [PWWP2B] | 5.51 ± 0.23 | 5.66 ± 0.15
PAPSRMQMPQGNPLLLSHTLQELL [SNX8] | 3.08 ± 0.21 | 3.1 ± 0.22
PASDLEAALEAAGEGLNVIQQTTR [NANOGP8] | 4.93 ± 0.17 | 4.95 ± 0.44
PAWGHCFYRLYQDLETHRLPCTSR [SCNN1D] | 2.32 ± 0.12 | 2.62 ± 0.32
PDAPDHTSETSHSPLYADPYTPPA [PLEKHN1] | 5.22 ± 0.3 | 5.01 ± 0.28
PDDLLTTLDDTCDLFAPLVQETNK [ATF4] | 5.12 ± 0.23 | 5.14 ± 0.22
PDIMNLLIKSGAHFDATNLHKQTA [FEM1C] | 2.39 ± 0.14 | 2.29 ± 0.26
PDNCEMFLNFNGMKLFLDCLKEFP [ZER1] | 2.25 ± 0.18 | 2.19 ± 0.33
PDPEPPPVTPQVGEGRKSRKFSRL [SMG5] | 3.98 ± 0.27 | 4.14 ± 0.45
PEDLQTDLAKLVDQQNPTLGETPE [ZNF449] | 5.62 ± 0.23 | 5.73 ± 0.2
PESRSLPSSPLRLGSYKAQKTSRS [PPEF2] | 5.29 ± 0.16 | 5.14 ± 0.24
PFDLEQQWQDLMSIMEMQAMEVNT [NFE2L1] | 3.87 ± 0.17 | 4.03 ± 0.28
PFSSHTYSQASELPTDAVDCMSRE [FBXO34] | 5.25 ± 0.29 | 5.01 ± 0.075
PGGGRLLLSTSLDAKDELEERLER [INTS3] | 4.94 ± 0.3 | 4.84 ± 0.15
PGPGIGGDAHFDEDERWTNNFREY [MMP1] | 4.14 ± 0.39 | 4.2 ± 0.35
PHLRSFCETCVGSWSIQMRQHHHQ | 2.4 ± 0.25 | 2.34 ± 0.23
PHRMDRRLLALIYLAHASDVLENA [GOLPH3] | 2.55 ± 0.27 | 2.34 ± 0.21

Sequence | protein stability index (treatment: DMSO) | protein stability index (treatment: MLN4924 1 uM, 8 h)
PIDVVEKYDPKTQEWSFLPSITRK [KLHL12] | 4.56 ± 0.27 | 4.64 ± 0.33
PIVSSLADPLDTPPDSKEGIVVES [PDZK1] | 5.37 ± 0.14 | 5.25 ± 0.48
PLDVVKVRLQSQRPSMASELMPSS [SLC25A39] | 3.65 ± 0.34 | 3.59 ± 0.36
PLLPLDMQGNQILVFPSSSSSSSS [ZBTB22] | 3.93 ± 0.24 | 4.1 ± 0.18
PNADLLFSDPSQSDPETKDFWLNM [FCHO1] | 4.2 ± 0.21 | 4.19 ± 0.19
PNAGEQPGQVAGADFESEDEGEEF [EID1] | 5.59 ± 0.28 | 5.46 ± 0.33
PPAADAPVTQIGFEAPPLQGQAAA [TRIM55] | 5.07 ± 0.47 | 5.15 ± 0.28
PPDSKEGIVVESNHDSHMAKERAH [PDZK1] | 5.55 ± 0.36 | 5.55 ± 0.23
PPKASEQETAKEEDGSVELESQVQ [C18orf25] | 5.42 ± 0.17 | 5.67 ± 0.081
PPLRVIVKDALFCSCLSDILRFIY [RHOBTB3] | 2.78 ± 0.16 | 2.84 ± 0.27
PPLSDPKQAKVVARRESGGRPIKP [BRD3] | 5.21 ± 0.15 | 5.12 ± 0.18
PPNADLEQGFQEGVPNASVIMQVP [MFF] | 4.83 ± 0.18 | 4.72 ± 0.33
PPPPPSYDPDYIQCPYCQRRFNEN [ZC2HC1A] | 5.27 ± 0.34 | 5.44 ± 0.17
PPQGGCGGGGCDRYEPLPPSLPAA [KCNA3] | 4.53 ± 0.16 | 4.7 ± 0.23
PPRRSRSRSHDRLPYQRRYRERRD [CLK3] | 4.51 ± 0.29 | 4.72 ± 0.32
PPSYGGSSRYDDYSSSRDGYGGSR [RBMX] | 4.612 ± 0.036 | 4.66 ± 0.33
PPVVAHYDMSDTNSDPEVVNVDNL [C18orf25] | 5.43 ± 0.18 | 5.46 ± 0.31
PQDLAPQVSAHHRSQESLTSQESE [TBC1D10A] | 5.64 ± 0.15 | 5.56 ± 0.23
PQGLFVEALSVPLSLCVSSHLALP [CLPTM1] | 2.96 ± 0.59 | 2.91 ± 0.41
PQSSKSTVVKSLIDNSSEIEDEDQ [FAN1] | 5.65 ± 0.14 | 5.6 ± 0.25
PRSAEPGYLVTKVVAVDRDSGQNA [PCDHGA10] | 4.77 ± 0.16 | 4.7 ± 0.29
